This passage reports Kd results from paper PMC9982066, “Inhibition of Ehrlichia chaffeensis infection by cell-permeable macrocyclic peptides that bind type IV secretion effector Etf-1” (PNAS Nexus, 2023).

B1: macrocyclic peptide B17, FAM-labelled (peptide)
chain: [Phg][dF]GDY[Dap]F[d2Nal][dR]R[dR]R[Dap]-{βAla-βAla-Lys(FAM)}
modifications: linker 6-13 via TMA; reading uncertain; also: TMA third attachment point not given here
B2: macrocyclic peptide B13, FAM-labelled (peptide)
chain: [dE]H[dF][dE]HA[Dap][dF][2Nal]R[dR]R[Dap]-{βAla-βAla-Lys(FAM)}
modifications: linker 7-13 via TMA; reading uncertain; also: TMA third attachment point not given here
B3: macrocyclic peptide B7-15, FAM-labelled (peptide)
chain: YHQ[dP]S[dL][Dap][hPhe][d2Nal][dR]R[dR]R[Dap]-{βAla-βAla-Lys(FAM)}
modifications: linker N-7-14 via Trimesoyl; not fully specified (N-terminus)
B4: macrocyclic peptide B7-22, FAM-labelled (peptide)
chain: YHQ[dP]S[dL][Dap][Phe(4-Cl)][3‑(3-benzothienyl)‑D‑Ala][dR]R[dR]R[Dap]-{βAla-βAla-Lys(FAM)}
modifications: linker N-7-14 via Trimesoyl; not fully specified (N-terminus)
B5: macrocyclic peptide B7-11, FAM-labelled (peptide)
chain: YHQ[dP]S[dL][Dap]F[d2Nal][dR]R[dA]R[Dap]-{βAla-βAla-Lys(FAM)}
modifications: linker 7-14 via TMA; reading uncertain; also: TMA third attachment point not given here
B6: macrocyclic peptide B7-1, FAM-labelled (peptide)
chain: YHQ[dP]S[dA][Dap]F[d2Nal][dR]R[dR]R[Dap]-{βAla-βAla-Lys(FAM)}
modifications: linker 7-14 via TMA; reading uncertain; also: TMA third attachment point not given here
B7: macrocyclic peptide B7-2, FAM-labelled (peptide)
chain: YHQ[dP]A[dL][Dap]F[d2Nal][dR]R[dR]R[Dap]-{βAla-βAla-Lys(FAM)}
modifications: linker N-7-14 via Trimesoyl; not fully specified (N-terminus)
B8: macrocyclic peptide B7-12, FAM-labelled (peptide)
chain: YHQ[dP]S[dL][Dap]F[d2Nal][dR]R[dR]A[Dap]-{βAla-βAla-Lys(FAM)}
modifications: linker N-7-14 via Trimesoyl; not fully specified (N-terminus)
B9: macrocyclic peptide B7-14, FAM-labelled (peptide)
chain: YHQ[dP]S[dL][Dap][Phg][d2Nal][dR]R[dR]R[Dap]-{βAla-βAla-Lys(FAM)}
modifications: linker N-7-14 via Trimesoyl; not fully specified (N-terminus)
B10: macrocyclic peptide B7-23, FAM-labelled (peptide)
chain: YHQ[dP]S[dL][Dap][Phe(4-Cl)][d1Nal][dR]R[dR]R[Dap]-{βAla-βAla-Lys(FAM)}
modifications: linker N-7-14 via Trimesoyl; not fully specified (N-terminus)
B11: macrocyclic peptide B7-17, FAM-labelled (peptide)
chain: YHQ[dP]S[dL][Dap][Phe(3-Cl)][d2Nal][dR]R[dR]R[Dap]-{βAla-βAla-Lys(FAM)}
modifications: linker N-7-14 via Trimesoyl; not fully specified (N-terminus)
B12: macrocyclic peptide B7-19, FAM-labelled (peptide)
chain: YHQ[dP]S[dL][Dap][Phe(3,4-Cl2)][d2Nal][dR]R[dR]R[Dap]-{βAla-βAla-Lys(FAM)}
modifications: linker N-7-14 via Trimesoyl; not fully specified (N-terminus)
B13: macrocyclic peptide B7-18, FAM-labelled (peptide)
chain: YHQ[dP]S[dL][Dap][Phe(4-F)][d2Nal][dR]R[dR]R[Dap]-{βAla-βAla-Lys(FAM)}
modifications: linker N-7-14 via Trimesoyl; not fully specified (N-terminus)
B14: macrocyclic peptide B7-20, FAM-labelled (peptide)
chain: YHQ[dP]S[dL][Dap][Phe(4-CF3)][d2Nal][dR]R[dR]R[Dap]-{βAla-βAla-Lys(FAM)}
modifications: linker N-7-14 via Trimesoyl; not fully specified (N-terminus)
B15: macrocyclic peptide B7-6, FAM-labelled (peptide)
chain: AHQ[dP]S[dL][Dap]F[d2Nal][dR]R[dR]R[Dap]
modifications: linker 7-14 via TMA; not fully specified (C-terminus); reading uncertain
B16: macrocyclic peptide B7-4, FAM-labelled (peptide)
chain: YHA[dP]S[dL][Dap]F[d2Nal][dR]R[dR]R[Dap]-{βAla-βAla-Lys(FAM)}
modifications: linker N-7-14 via Trimesoyl; not fully specified (N-terminus)
B17: macrocyclic peptide B7-5, FAM-labelled (peptide)
chain: YAQ[dP]S[dL][Dap]F[d2Nal][dR]R[dR]R[Dap]-{βAla-βAla-Lys(FAM)}
modifications: linker N-7-14 via Trimesoyl; not fully specified (N-terminus)
B18: macrocyclic peptide B7-9, FAM-labelled (peptide)
chain: YHQ[dP]S[dL][Dap]F[d2Nal][dA]R[dR]R[Dap]
modifications: linker 7-14 via TMA; not fully specified (C-terminus); reading uncertain
B19: macrocyclic peptide B7-3, FAM-labelled (peptide)
chain: YHQ[dA]S[dL][Dap]F[d2Nal][dR]R[dR]R[Dap]-{βAla-βAla-Lys(FAM)}
modifications: linker N-7-14 via Trimesoyl; not fully specified (N-terminus)
B20: macrocyclic peptide B7-21, FAM-labelled (peptide)
chain: YHQ[dP]S[dL][Dap][2Nal][d2Nal][dR]R[dR]R[Dap]-{βAla-βAla-Lys(FAM)}
modifications: linker N-7-14 via Trimesoyl; not fully specified (N-terminus)
B21: macrocyclic peptide B7-13, FAM-labelled (peptide)
chain: YHQ[dP]S[dL][Dap][Phe(4-Me)][d2Nal][dR]R[dR]R[Dap]-{βAla-βAla-Lys(FAM)}
modifications: linker N-7-14 via Trimesoyl; not fully specified (N-terminus)
B22: macrocyclic peptide B7-10, FAM-labelled (peptide)
chain: YHQ[dP]S[dL][Dap]F[d2Nal][dR]A[dR]R[Dap]-{βAla-βAla-Lys(FAM)}
modifications: linker 7-14 via TMA; reading uncertain; also: TMA third attachment point not given here
B23: FAM-labeled macrocyclic peptide B7-131-1 (peptide)
chain: Y[dN][d2Nal]S[Phg][dL][dL][Dap][Phe(4-Cl)][d2Nal][dR]R[dR]R[Dap]-{βAla-βAla-Lys(FAM)}
modifications: linker 8-15 via TMA; reading uncertain; also: TMA third attachment point not given here
B24: FAM-labeled macrocyclic peptide B7-133-3 (peptide)
chain: Y[dF]D[Nle][dN][dL][Dap][Phe(4-Cl)][d2Nal][dR]R[dR]R[Dap]-{βAla-βAla-Lys(FAM)}
modifications: linker 7-14 via TMA; reading uncertain; also: TMA third attachment point not given here
B25: FAM-labeled macrocyclic peptide B7-133-8 (peptide)
chain: Y[d2Nal]Q[D‑beta‑homoalanine][dP][dL][Dap][Phe(4-Cl)][d2Nal][dR]R[dR]R[Dap]-{βAla-βAla-Lys(FAM)}
modifications: linker 7-14 via TMA; reading uncertain; also: TMA third attachment point not given here
B26: FAM-labeled macrocyclic peptide B7 (peptide)
chain: YHQ[dP]S[dL][Dap]F[d2Nal][dR]R[dR]R[Dap]-{βAla-βAla-Lys(FAM)}
modifications: linker 7-14 via TMA; reading uncertain; also: TMA third attachment point not given here
B27: FAM-labeled macrocyclic peptide B7-133-9 (peptide)
chain: Y[dV][dL][dY][Phe(4-F)][dL][Dap][Phe(4-Cl)][d2Nal][dR]R[dR]R[Dap]-{βAla-βAla-Lys(FAM)}
modifications: linker 7-14 via TMA; reading uncertain; also: TMA third attachment point not given here
B28: FAM-labeled macrocyclic peptide B7-131-4 (peptide)
chain: Y[Phe(4-F)]D[Phg][dY][βAsp][dL][Dap][Phe(4-Cl)][d2Nal][dR]R[dR]R[Dap]-{βAla-βAla-Lys(FAM)}
modifications: linker 8-15 via TMA; reading uncertain; also: TMA third attachment point not given here
B29: FAM-labeled macrocyclic peptide B7-131-5 (peptide)
chain: YH[dP][d2Nal]DA[dL][Dap][Phe(4-Cl)][d2Nal][dR]R[dR]R[Dap]-{βAla-βAla-Lys(FAM)}
modifications: linker 8-15 via TMA; reading uncertain; also: TMA third attachment point not given here

Starred links: 1 amine or outer side, 2 acyl side, 3 side chain; linkers in the order of their positions; H or OH if unused. Positions of bridges follow the written chain, without caps; N, C: chain ends. Non-standard residues stand in square brackets, D forms with d. No end group written: not given here. Trimesoyl = O=C(c1cc(C(=O)[*:2])cc(C(=O)[*:3])c1)[*:1]; Phe(3,4-Cl2) = N[C@@H](Cc1ccc(Cl)c(Cl)c1)C(=O)O; Phe(4-CF3) = N[C@@H](Cc1ccc(C(F)(F)F)cc1)C(=O)O; Phe(3-Cl) = N[C@@H](Cc1cccc(Cl)c1)C(=O)O; Phe(4-Cl) = N[C@@H](Cc1ccc(Cl)cc1)C(=O)O; Phe(4-F) = N[C@@H](Cc1ccc(F)cc1)C(=O)O; Phe(4-Me) = Cc1ccc(C[C@H](N)C(=O)O)cc1; 2Nal = N[C@@H](Cc1ccc2ccccc2c1)C(=O)O; d1Nal = N[C@H](Cc1cccc2ccccc12)C(=O)O; d2Nal = N[C@H](Cc1ccc2ccccc2c1)C(=O)O; βAsp = O=C(O)[C@H](CC(=O)[*:2])N[*:1]; hPhe = N[C@@H](CCc1ccccc1)C(=O)O; Phg = N[C@H](C(=O)O)c1ccccc1; Nle = CCCC[C@H](N)C(=O)O; Dap = NC[C@H](N)C(=O)O; TMA = not defined here; βAla = NCCC(=O)O

For the first experiment, the target named is T1, Ehrlichia translocated factor-1 (Etf-1) (Ehrlichia chaffeensis, UniProt Q2GG12 1-380). The experiment can be described thus: fluorescence polarisation. To be noted: both partners purified.
In the case of B1, the Kd is greater than 25 µM.

B2 returned a Kd greater than 25 µM.

The target of another experiment is T1, Ehrlichia translocated factor-1 (Etf-1). In words: fluorescence polarisation. To be noted: both partners purified. The source holds these as a separate data set. On the technique in general: In fluorescence polarisation assays a small probe gives low polarisation when free and higher when bound to something large.
B3 came in with a Kd of 3.4 ± 0.6 µM.

In the case of B4, binding was put at a Kd of 5.7 ± 0.9 µM.

The molecule B5 gave a Kd of 28 ± 6 µM.

In turn, B6 registered a Kd of 18.9 ± 6.9 µM.

Consider B7, for which binding was put at a Kd of 6.7 ± 0.8 µM.

On to B8, for which the affinity, expressed as Kd, was 15 ± 2 µM.

With B9, the Kd stood at 5.8 ± 0.9 µM.

For B10, the Kd is 4.7 ± 0.5 µM.

Consider B11, for which the Kd worked out at 3.4 ± 0.4 µM.

In turn, B12 showed a Kd of 1.6 ± 0.2 µM.

As for B13, the affinity, expressed as Kd, was 3 ± 0.5 µM.

B14 showed a Kd of 1.8 ± 0.2 µM.

Consider B15, for which the affinity, expressed as Kd, was 11.9 ± 3.4 µM.

B16 came in with a Kd of 7.4 ± 0.9 µM.

For the molecule B17, the Kd worked out at 10.9 ± 1.5 µM.

B18 had a Kd of 30 ± 7 µM.

As for B19, the Kd stood at 5.8 ± 0.5 µM.

B20 displayed a Kd of 1.9 ± 0.2 µM.

B21: the affinity, expressed as Kd, was 6.3 ± 0.8 µM.

Regarding B22, the Kd was found to be 30 ± 3 µM.

The target in the next experiment is Ehrlichia translocated factor-1 (Etf-1), recombinant 6×His-Etf-1 fusion protein (E. chaffeensis, UniProt Q2GG12 1-380). In words: fluorescence polarisation. Conditions: both partners purified.
Turning to B23, the Kd amounted to 1.7 ± 0.2 µM.

B24: the Kd was found to be 2.4 ± 0.3 µM.

For B25, the Kd is 1.3 ± 0.1 µM.

B26: the Kd was 6.5 ± 0.7 µM.

As to B27, the Kd is 2.2 ± 0.3 µM.

Take B28: the Kd is roughly 1.5 µM.

Take B29: the Kd was determined as 2.9 ± 0.4 µM.

What is called Kd is the constant that tells how readily two partners part at equilibrium.
